Results on 2 molecules are retold here after patent US20190225685A1, “ANTI-DLL3 ANTIBODY DRUG CONJUGATES AND METHODS OF USE” (ABBVIE STEMCENTRX LLC, priority 2018, published 2019).

The test system of series [1] is recurrent/refractory small cell lung cancer (SCLC). To be noted: single agent; cited from earlier work.
Series [2] concerns GB8 tumors (GBM PDX tumor line). The experiment in a line: Glioblastoma PDX tumor growth suppression in immunodeficient mice. Type of series: in vivo, female NOD/SCID mice. Particulars: single dose 0.2 mg/kg, intraperitoneal, subcutaneous GB8 tumors, 20 days post-treatment (FIG. 3). The method, then: (§1) A GBM PDX tumor line was grown subcutaneously in the flanks of female NOD/SCID mice using art-recognized techniques. Tumor volumes and mouse weights were monitored once or twice per week. When tumor volumes reached 150-250 mm^3, mice were randomly assigned to treatment groups and injected intraperitoneally with SC16.56 PDB3 or an isotype control human IgG1.PDB3. SC16.56 PDB3 comprises the same humanized antibody as found in Rova-t but employs a different PBD cytotoxin. Following treatment, tumor volumes and mouse weights were monitored until tumors exceeded 1000 mm^3 or mice became sick.

Series [3] is described as follows: Adverse health effects in treated tumor-bearing mice. In kind it is in vivo, female NOD/SCID mice. Particulars: tumor-bearing NOD/SCID mice treated intraperitoneally. The method, then: as §1

Take rovalpituzumab tesirine [Rova-T]: in series [1], the clinical activity entry is listed as “clinically demonstrated single agent activity”.

B1: SC16.56 PBD3: anti-DLL3 ADC; comprises the same humanized antibody as found in Rova-T but employs a different PBD cytotoxin (conjugate, chains of the INN, looked up)
VH: QVQLVQSGAEVKKPGASVKVSCKASGYTFTNYGMNWVRQAPGQGLEWMGWINTYTGEPTYADDFKGRVTMTTDTSTSTAYMELRSLRSDDTAVYYCARIGDSSPSDYWGQGTLVTVSS
VL: EIVMTQSPATLSVSPGERATLSCKASQSVSNDVVWYQQKPGQAPRLLIYYASNRYTGIPARFSGSGSGTEFTLTISSLQSEDFAVYYCQQDYTSPWTFGQGTKLEIK
modifications: PBD3 cytotoxin conjugate
As for B1, in series [2], the “tumor growth (tumor volume)” value is reported as “tumor suppression”. The adverse health effects result in series [3] is on record as “did not exhibit any adverse health effects beyond those typically seen in immunodeficient, tumor-bearing NOD/SCID mice”.
